Test results reported in article PMC3585263, “A Novel Ion Channel Formed by Interaction of TRPML3 with TRPV5” (PLoS ONE, 2013).

How the values were obtained:
[1] = molecular target: TRPML3 (not stated (human or mouse cDNA cloned)) (UniProt Q8R4F0); assay: FRET or BRET; acceptor photobleaching FRET in transiently transfected HEK293 cells; C-terminal CFP and YFP fusions; FRET efficiency from the recovery of CFP fluorescence during YFP photobleaching
TRPV5 (mouse) [2] = molecular target: TRPV5 (mouse) (UniProt P69744)
TRPV5 (mouse) [3] = molecular target: TRPV5 (mouse) (UniProt P69744); remark: listed apart in the source
TRPML3 = molecular target: T1, TRPML3 ( (human or mouse cDNA cloned), UniProt Q8R4F0 1-553); assay: FRET or BRET; acceptor photobleaching FRET in transiently transfected HEK293 cells; C-terminal CFP and YFP fusions; FRET efficiency from the recovery of CFP fluorescence during YFP photobleaching; settings: partners not purified
T1 construct: TRPML3 cation channel; pcDNA3.1 plasmids held full-length mouse TRPML3 (NM_134160) and human TRPML3 (NM_018298); 'full-length' is printed for the mouse cDNA; Stood as CFP fusion and as YFP fusion in the FRET pairs; also called mucolipin 3; source: HEK293, transiently transfected, in cells; not shown: YFP or CFP, C-terminal, kept
T1 sequence (looked up): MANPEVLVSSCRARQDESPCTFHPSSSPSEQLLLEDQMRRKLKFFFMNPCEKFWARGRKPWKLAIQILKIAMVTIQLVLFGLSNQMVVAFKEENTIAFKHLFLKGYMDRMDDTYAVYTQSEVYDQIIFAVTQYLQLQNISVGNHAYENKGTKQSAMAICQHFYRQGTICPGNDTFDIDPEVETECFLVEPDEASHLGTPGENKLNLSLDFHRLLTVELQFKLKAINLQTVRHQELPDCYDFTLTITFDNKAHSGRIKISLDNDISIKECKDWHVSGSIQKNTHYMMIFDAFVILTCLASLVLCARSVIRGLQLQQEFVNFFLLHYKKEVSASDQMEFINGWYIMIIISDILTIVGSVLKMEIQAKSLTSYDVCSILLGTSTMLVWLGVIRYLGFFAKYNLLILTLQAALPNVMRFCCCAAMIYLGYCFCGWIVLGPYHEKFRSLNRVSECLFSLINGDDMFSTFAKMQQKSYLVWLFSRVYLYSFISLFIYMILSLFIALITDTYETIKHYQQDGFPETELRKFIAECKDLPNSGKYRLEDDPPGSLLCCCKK

Chain of TRPV5 (mouse) (P69744 whole entry, the tested form may be a part): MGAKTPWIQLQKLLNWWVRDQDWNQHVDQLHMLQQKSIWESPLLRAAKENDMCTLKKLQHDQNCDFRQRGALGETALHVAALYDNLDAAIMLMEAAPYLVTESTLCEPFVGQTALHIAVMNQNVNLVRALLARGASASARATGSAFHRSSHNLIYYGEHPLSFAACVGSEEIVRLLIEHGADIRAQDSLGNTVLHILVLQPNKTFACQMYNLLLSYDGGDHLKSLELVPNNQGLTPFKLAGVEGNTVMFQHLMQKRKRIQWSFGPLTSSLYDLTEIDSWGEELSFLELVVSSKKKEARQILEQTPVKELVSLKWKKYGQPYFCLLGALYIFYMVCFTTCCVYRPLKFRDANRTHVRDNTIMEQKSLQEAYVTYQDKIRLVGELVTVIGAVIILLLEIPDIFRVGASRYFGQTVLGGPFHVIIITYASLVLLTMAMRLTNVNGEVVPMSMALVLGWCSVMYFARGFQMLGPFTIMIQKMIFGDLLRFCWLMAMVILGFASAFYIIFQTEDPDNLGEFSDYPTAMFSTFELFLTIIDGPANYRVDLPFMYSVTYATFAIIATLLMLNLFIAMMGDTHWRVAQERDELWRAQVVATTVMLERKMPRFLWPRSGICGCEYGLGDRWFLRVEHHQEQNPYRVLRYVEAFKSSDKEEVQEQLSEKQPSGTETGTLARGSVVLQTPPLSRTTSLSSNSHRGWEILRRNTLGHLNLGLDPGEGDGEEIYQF

YFP alone
FRET efficiency [1]: < 5%

B1: TRPML3 (natural protein)
chain: MANPEVLVSSCRARQDESPCTFHPSSSPSEQLLLEDQMRRKLKFFFMNPCEKFWARGRKPWKLAIQILKIAMVTIQLVLFGLSNQMVVAFKEENTIAFKHLFLKGYMDRMDDTYAVYTQSEVYDQIIFAVTQYLQLQNISVGNHAYENKGTKQSAMAICQHFYRQGTICPGNDTFDIDPEVETECFLVEPDEASHLGTPGENKLNLSLDFHRLLTVELQFKLKAINLQTVRHQELPDCYDFTLTITFDNKAHSGRIKISLDNDISIKECKDWHVSGSIQKNTHYMMIFDAFVILTCLASLVLCARSVIRGLQLQQEFVNFFLLHYKKEVSASDQMEFINGWYIMIIISDILTIVGSVLKMEIQAKSLTSYDVCSILLGTSTMLVWLGVIRYLGFFAKYNLLILTLQAALPNVMRFCCCAAMIYLGYCFCGWIVLGPYHEKFRSLNRVSECLFSLINGDDMFSTFAKMQQKSYLVWLFSRVYLYSFISLFIYMILSLFIALITDTYETIKHYQQDGFPETELRKFIAECKDLPNSGKYRLEDDPPGSLLCCCKK
whole-cell current density of the novel current at −150 mV in standard bath solution (condition 1), HEK293 cells cotransfected with TRPV5 and TRPML3 (TRPV5 (mouse) [2]): -0.129 nA/pF
average open time, single channels of cotransfected HEK293 cells, first type of current, condition 1 (TRPV5 (mouse) [3]): 0.4 ms
average open time, single channels of cotransfected HEK293 cells, second type of current, condition 1 (TRPV5 (mouse) [3]): 0.16 ms
average open time, single channels of cotransfected HEK293 cells, second type of current, condition 2 (TRPV5 (mouse) [3]): 0.17 ms
mean open time, single channels of cotransfected HEK293 cells, first type of current, condition 2 (TRPV5 (mouse) [3]): 5.98 ms
single channel conductance at −150 mV, outside-out patches of cotransfected HEK293 cells, first type of current, condition 1 (TRPV5 (mouse) [3]): 32.3 pS
single channel conductance, cotransfected HEK293 cells, first type of current, condition 2 (TRPV5 (mouse) [3]): 33.4 pS
single channel conductance, cotransfected HEK293 cells, second type of current, condition 1 (TRPV5 (mouse) [3]): 34.6 pS
single channel conductance, cotransfected HEK293 cells, second type of current, condition 2 (TRPV5 (mouse) [3]): 46.7 pS

B2: PKD2 (natural protein, UniProt Q13563 1-968, looked up)
chain: MVNSSRVQPQQPGDAKRPPAPRAPDPGRLMAGCAAVGASLAAPGGLCEQRGLEIEMQRIRQAAARDPPAGAAASPSPPLSSCSRQAWSRDNPGFEAEEEEEEVEGEEGGMVVEMDVEWRPGSRRSAASSAVSSVGARSRGLGGYHGAGHPSGRRRRREDQGPPCPSPVGGGDPLHRHLPLEGQPPRVAWAERLVRGLRGLWGTRLMEESSTNREKYLKSVLRELVTYLLFLIVLCILTYGMMSSNVYYYTRMMSQLFLDTPVSKTEKTNFKTLSSMEDFWKFTEGSLLDGLYWKMQPSNQTEADNRSFIFYENLLLGVPRIRQLRVRNGSCSIPQDLRDEIKECYDVYSVSSEDRAPFGPRNGTAWIYTSEKDLNGSSHWGIIATYSGAGYYLDLSRTREETAAQVASLKKNVWLDRGTRATFIDFSVYNANINLFCVVRLLVEFPATGGVIPSWQFQPLKLIRYVTTFDFFLAACEIIFCFFIFYYVVEEILEIRIHKLHYFRSFWNCLDVVIVVLSVVAIGINIYRTSNVEVLLQFLEDQNTFPNFEHLAYWQIQFNNIAAVTVFFVWIKLFKFINFNRTMSQLSTTMSRCAKDLFGFAIMFFIIFLAYAQLAYLVFGTQVDDFSTFQECIFTQFRIILGDINFAEIEEANRVLGPIYFTTFVFFMFFILLNMFLAIINDTYSEVKSDLAQQKAEMELSDLIRKGYHKALVKLKLKKNTVDDISESLRQGGGKLNFDELRQDLKGKGHTDAEIEAIFTKYDQDGDQELTEHEHQQMRDDLEKEREDLDLDHSSLPRPMSSRSFPRSLDDSEEDDDEDSGHSSRRRGSISSGVSYEEFQVLVRRVDRMEHSIGSIVSKIDAVIVKLEIMERAKLKRREVLGRLLDGVAEDERLGRDSEIHREQMERLVREELERWESDDAASQISHGLGTPVGLNGQPRPRSSRPSSSQSTEGMEGAGGNGSSNVHV
notes: PKD2 (TRPP2) cation channel; construct and species not described; also called TRPP2; source: HEK293, transiently transfected, in cells; not shown: YFP or CFP, C-terminal, kept
FRET efficiency (TRPML3): < 5%

B3: TRPC6 (natural protein, UniProt Q9Y210 1-931, looked up)
chain: MSQSPAFGPRRGSSPRGAAGAAARRNESQDYLLMDSELGEDGCPQAPLPCYGYYPCFRGSDNRLAHRRQTVLREKGRRLANRGPAYMFSDRSTSLSIEEERFLDAAEYGNIPVVRKMLEECHSLNVNCVDYMGQNALQLAVANEHLEITELLLKKENLSRVGDALLLAISKGYVRIVEAILSHPAFAEGKRLATSPSQSELQQDDFYAYDEDGTRFSHDVTPIILAAHCQEYEIVHTLLRKGARIERPHDYFCKCNDCNQKQKHDSFSHSRSRINAYKGLASPAYLSLSSEDPVMTALELSNELAVLANIEKEFKNDYKKLSMQCKDFVVGLLDLCRNTEEVEAILNGDVETLQSGDHGRPNLSRLKLAIKYEVKKFVAHPNCQQQLLSIWYENLSGLRQQTMAVKFLVVLAVAIGLPFLALIYWFAPCSKMGKIMRGPFMKFVAHAASFTIFLGLLVMNAADRFEGTKLLPNETSTDNAKQLFRMKTSCFSWMEMLIISWVIGMIWAECKEIWTQGPKEYLFELWNMLDFGMLAIFAASFIARFMAFWHASKAQSIIDANDTLKDLTKVTLGDNVKYYNLARIKWDPSDPQIISEGLYAIAVVLSFSRIAYILPANESFGPLQISLGRTVKDIFKFMVIFIMVFVAFMIGMFNLYSYYIGAKQNEAFTTVEESFKTLFWAIFGLSEVKSVVINYNHKFIENIGYVLYGVYNVTMVIVLLNMLIAMINSSFQEIEDDADVEWKFARAKLWFSYFEEGRTLPVPFNLVPSPKSLFYLLLKLKKWISELFQGHKKGFQEDAEMNKINEEKKLGILGSHEDLSKLSLDKKQVGHNKQPSIRSSEDFHLNSFNNPPRQYQKIMKRLIKRYVLQAQIDKESDEVNEGELKEIKQDISSLRYELLEEKSQNTEDLAELIRELGEKLSMEPNQEETNR
notes: TRPC6 cation channel; construct and species not described; source: HEK293, transiently transfected, in cells; not shown: YFP or CFP, C-terminal, kept
FRET efficiency (TRPML3): < 5%

B4: TRPV2 (natural protein, UniProt Q9Y5S1 1-764, looked up)
chain: MTSPSSSPVFRLETLDGGQEDGSEADRGKLDFGSGLPPMESQFQGEDRKFAPQIRVNLNYRKGTGASQPDPNRFDRDRLFNAVSRGVPEDLAGLPEYLSKTSKYLTDSEYTEGSTGKTCLMKAVLNLKDGVNACILPLLQIDRDSGNPQPLVNAQCTDDYYRGHSALHIAIEKRSLQCVKLLVENGANVHARACGRFFQKGQGTCFYFGELPLSLAACTKQWDVVSYLLENPHQPASLQATDSQGNTVLHALVMISDNSAENIALVTSMYDGLLQAGARLCPTVQLEDIRNLQDLTPLKLAAKEGKIEIFRHILQREFSGLSHLSRKFTEWCYGPVRVSLYDLASVDSCEENSVLEIIAFHCKSPHRHRMVVLEPLNKLLQAKWDLLIPKFFLNFLCNLIYMFIFTAVAYHQPTLKKQAAPHLKAEVGNSMLLTGHILILLGGIYLLVGQLWYFWRRHVFIWISFIDSYFEILFLFQALLTVVSQVLCFLAIEWYLPLLVSALVLGWLNLLYYTRGFQHTGIYSVMIQKVILRDLLRFLLIYLVFLFGFAVALVSLSQEAWRPEAPTGPNATESVQPMEGQEDEGNGAQYRGILEASLELFKFTIGMGELAFQEQLHFRGMVLLLLLAYVLLTYILLLNMLIALMSETVNSVATDSWSIWKLQKAISVLEMENGYWWCRKKQRAGVMLTVGTKPDGSPDERWCFRVEEVNWASWEQTLPTLCEDPSGAGVPRTLENPVLASPPKEDEDGASEENYVPVQLLQSN
notes: TRPV2 cation channel; construct and species not described; source: HEK293, transiently transfected, in cells; not shown: YFP or CFP, C-terminal, kept
FRET efficiency (TRPML3): < 5%

B5: TRPA1 (natural protein, UniProt O75762 1-1119, looked up)
chain: MKRSLRKMWRPGEKKEPQGVVYEDVPDDTEDFKESLKVVFEGSAYGLQNFNKQKKLKRCDDMDTFFLHYAAAEGQIELMEKITRDSSLEVLHEMDDYGNTPLHCAVEKNQIESVKFLLSRGANPNLRNFNMMAPLHIAVQGMNNEVMKVLLEHRTIDVNLEGENGNTAVIIACTTNNSEALQILLKKGAKPCKSNKWGCFPIHQAAFSGSKECMEIILRFGEEHGYSRQLHINFMNNGKATPLHLAVQNGDLEMIKMCLDNGAQIDPVEKGRCTAIHFAATQGATEIVKLMISSYSGSVDIVNTTDGCHETMLHRASLFDHHELADYLISVGADINKIDSEGRSPLILATASASWNIVNLLLSKGAQVDIKDNFGRNFLHLTVQQPYGLKNLRPEFMQMQQIKELVMDEDNDGCTPLHYACRQGGPGSVNNLLGFNVSIHSKSKDKKSPLHFAASYGRINTCQRLLQDISDTRLLNEGDLHGMTPLHLAAKNGHDKVVQLLLKKGALFLSDHNGWTALHHASMGGYTQTMKVILDTNLKCTDRLDEDGNTALHFAAREGHAKAVALLLSHNADIVLNKQQASFLHLALHNKRKEVVLTIIRSKRWDECLKIFSHNSPGNKCPITEMIEYLPECMKVLLDFCMLHSTEDKSCRDYYIEYNFKYLQCPLEFTKKTPTQDVIYEPLTALNAMVQNNRIELLNHPVCKEYLLMKWLAYGFRAHMMNLGSYCLGLIPMTILVVNIKPGMAFNSTGIINETSDHSEILDTTNSYLIKTCMILVFLSSIFGYCKEAGQIFQQKRNYFMDISNVLEWIIYTTGIIFVLPLFVEIPAHLQWQCGAIAVYFYWMNFLLYLQRFENCGIFIVMLEVILKTLLRSTVVFIFLLLAFGLSFYILLNLQDPFSSPLLSIIQTFSMMLGDINYRESFLEPYLRNELAHPVLSFAQLVSFTIFVPIVLMNLLIGLAVGDIAEVQKHASLKRIAMQVELHTSLEKKLPLWFLRKVDQKSTIVYPNKPRSGGMLFHIFCFLFCTGEIRQEIPNADKSLEMEILKQKYRLKDLTFLLEKQHELIKLIIQKMEIISETEDDDSHCSFQDRFKKEQMEQRNSRWNTVLRAVKAKTHHLEP
notes: TRPA1 cation channel; construct and species not described; source: HEK293, transiently transfected, in cells; not shown: YFP or CFP, C-terminal, kept
FRET efficiency (TRPML3): < 5%
